Data on 14 molecules can be found in patent US12630600B2 (MEDIMMUNE LIMITED, priority 2022, dated 2026).

“And” between values parts separate entries of the source, which are not always exact repeats. Equal entries are not always repeated. Where two headings read alike, the source gives them in different places. Starred links: 1 amine or outer side, 2 acyl side, 3 side chain; linkers in the order of their positions; H or OH if unused. Non-standard residues stand in square brackets, D forms with d. Residues, ends and D or L forms follow the SMILES beside them. Groups on a side chain read outwards from the residue. Primed or numbered codes have the meaning given here. No end group written: not given here. *: point of attachment. β‑dimethylArg = (S)-2-amino-5-guanidino-3,3-dimethylpentanoic acid, CC(C)(CCNC(=N)N)[C@H](N[*:1])C(=O)[*:2]; C20 diacid = O=C(O)CCCCCCCCCCCCCCCCCCC(=O)*; C18 diacid = O=C(O)CCCCCCCCCCCCCCCCC(=O)*; Dip = N[C@H](C(=O)O)C(c1ccccc1)c1ccccc1; γGlu = O=C(O)[C@H](CCC(=O)[*:2])N[*:1]; Palmitoyl = CCCCCCCCCCCCCCCC(=O)*; αMeF = C[C@](N)(Cc1ccccc1)C(=O)O; Myristoyl = CCCCCCCCCCCCCC(=O)*; (PEG)2 = polyethylene glycol 2; PEG2′ = polyethylene glycol 2; AEEA = NCCOCCOCC(=O)O; Aib = CC(C)(N)C(=O)O

Experiment [1] deals with T1, Semaglutide (synthetic construct).
T1 sequence (peptide, Aib at 2; X20=Lys[O2Oc-O2Oc-γE-C18diacid]; C-terminal acid): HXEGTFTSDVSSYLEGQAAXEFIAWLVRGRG

For the next experiment, the system named is Male C57Bl/6 mice. Kind of experiment: Mouse acute food intake study. Format: in vivo. The following applies: s.c., food intake at 24 h vs vehicle. Here is the method:
Male C57Bl/6 mice obtained from Jackson Laboratories or Charles River at 8-9 weeks of age and were housed one per cage in BioDaq (Research Diets) cages. Mice were placed on Alpha Dri bedding, standard chow diet (Envigo, 2018) and given water pouches. Mice were allowed to acclimate for 1-2 weeks. Body weight was measured to ensure appropriate acclimation. After acclimation, mice were sham dosed a minimum of 2 times prior to initiation of food intake study. On study day, mice were placed in clean cage bottoms, weighed, and fasted for 6-8 hours. Mice were sorted into groups based on average 24-hour food intake data and body weight. 1-2 hours prior to lights out, mice were dosed subcutaneously with one vehicle or test peptide dissolved in an appropriate vehicle at 5 mL/kg. Mice were left undisturbed and allowed access to food and water for 48 hours. Automated food intake was monitored in the BioDaq system was monitored during this time. Discrete food intake data was exported into MS Excel from which cumulative food intake data was generated and analyzed.

For another experiment, the system named is GLP-1R knockout mice. Kind of experiment: Glucose change in GLP-1R knockout mice. Format: in vivo, mouse. The following applies: GLP-1R KO mice, s.c., no somatostatin pretreatment. Here is the method: (§1) They acclimated for a minimum of ˜1-2 weeks, and mice were sorted into groups (n=4-8/group) based on body weight. On day of study, mice were fasted briefly for 2 hrs prior to study start. In some studies, mice were pre-treated with octreotide (BaChem, 10 mg/kg) at 30 minutes prior to peptide injection. Glucose was measured via glucometer at various timepoints including −30 min (prior to octreotide when used in studies), 0 min (before peptide dose), 30, 60, 120, 180, 240, and 360 minutes. Since these studies are acute in nature, mice were re-used for multiple studies (no more than 3) and always allowed at least a minimum wash-out period of 1 week.

In the next experiment the test system is wildtype (WT) mice. Kind of experiment: Glucose change in wildtype mice. The following applies: s.c., no somatostatin pretreatment. Format: in vivo, mouse. Here is the method:
as §1, with “[…] and wildtype (WT) mice at 8-14 weeks of age were singly housed on standard chow diet (Envigo, 2918) and automatic water. They” for “They”

In experiment [2] the target is T1, Semaglutide (synthetic construct). The source holds these as a separate data set.
Experiment [3] deals with GLP-1R of the mouse (present in wildtype mice, absent in GLP-1R knockout mice) (mouse, UniProt O35659). In words: cell-based or functional assay.
For experiment [4], the target named is T2, human GLP-1 receptor (human, UniProt P43220). Kind of experiment: cell-based or functional assay.
The next experiment has as its target human glucagon receptor (human, UniProt P47871). In words: cell-based or functional assay.
The target of experiment [5] is T2, human GLP-1 receptor. Kind of experiment: cell-based or functional assay. This is another data set of the same source.

For the molecule “recombinant Neprilysin (from UniProt P08473) (enzyme)”, in [1], the % intact peptide over time, 24 hr (% intact peptide at 24 hr) was 48.
For “H-Aib-Q-G-T-F-T-S-D-V-S-K-αMePhe-L-D-T-K-R-A-R-D-F-V-Q-W-L-L-E-Aib-G-acid [Peptide 195]”, the “24 hr % Vehicle Food Intake” value is 102.1% in the experiment on Male C57Bl/6 mice (dose 1 nmol/kg); 84.0% with Male C57Bl/6 mice (dose 3 nmol/kg); 58.2% and 49.9% in the experiment with Male C57Bl/6 mice (dose 10 nmol/kg). The “GLP-1R KO % glucose change −60 min” value came out at 35.3% in the experiment with GLP-1R knockout mice (10 nmol/kg) and 48.0% with GLP-1R knockout mice (30 nmol/kg). Besides, the “WT % glucose change 60 min” value is 1.4% in the experiment on wildtype (WT) mice (10 nmol/kg) and −17.0% in the experiment with wildtype (WT) mice (30 nmol/kg).
On to `CC[C@H](C)[C@H](NC(=O)[C@H](Cc1c[nH]c2ccccc12)NC(=O)[C@H](CCC(N)=O)NC(=O)[C@@H](NC(=O)[C@H](Cc1ccccc1)NC(=O)[C@H](CC(=O)O)NC(=O)[C@H](CCCCNC(=O)COCCOCCNC(=O)COCCOCCNC(=O)CC[C@H](NC(=O)CC[C@H](NC(=O)CCCCCCCCCCCCCCCCCCC(=O)O)C(=O)O)C(=O)O)NC(=O)[C@H](C)NC(=O)[C@H](C)NC(=O)[C@H](CCCNC(=N)N)NC(=O)[C@H](CO)NC(=O)[C@H](CC(=O)O)NC(=O)[C@H](CC(C)C)NC(=O)[C@H](Cc1ccc(O)cc1)NC(=O)[C@H](CCCCN)NC(=O)[C@H](CO)NC(=O)[C@@H](NC(=O)[C@H](CC(=O)O)NC(=O)[C@H](CO)NC(=O)[C@@H](NC(=O)[C@](C)(Cc1ccccc1)NC(=O)[C@H](CO)NC(=O)CNC(=O)[C@H](Cc1c[nH]cn1)NC(=O)C(C)(C)NC(=O)[C@@H](N)Cc1c[nH]cn1)[C@@H](C)O)C(C)C)C(C)C)C(=O)N[C@@H](C)C(=O)N[C@@H](CC(N)=O)C(=O)N[C@H](C(N)=O)[C@@H](C)O` [Peptide 289] (H-H[Aib]HGS[αMeF]TSDVSKYLDSRAAK([AEEA-AEEA-γGlu-γGlu-C20 diacid])DFVQWIANT-NH2; N-terminus assumed), for which the “GLP-1R KO % glucose change 120 min” value in the experiment on GLP-1R knockout mice (10 nmol/kg) stood at 8.9%; in the experiment with GLP-1R knockout mice (30 nmol/kg) it was 7.7%. In addition, in the experiment on wildtype (WT) mice (10 nmol/kg), the “WT % glucose change 120 min” value is recorded as −8.5%.
`CC(C)C[C@H](NC(=O)[C@H](Cc1c[nH]c2ccccc12)NC(=O)[C@H](CCC(N)=O)NC(=O)[C@@H](NC(=O)[C@H](Cc1ccccc1)NC(=O)[C@H](CC(=O)O)NC(=O)[C@H](CCCNC(=N)N)NC(=O)[C@H](C)NC(=O)[C@H](CCCNC(=N)N)NC(=O)[C@H](CCCCNC(=O)COCCOCCNC(=O)COCCOCCNC(=O)CC[C@H](NC(=O)CCCCCCCCCCCCCCCCC(=O)O)C(=O)O)NC(=O)[C@@H](NC(=O)[C@H](CC(=O)O)NC(=O)[C@H](CC(C)C)NC(=O)[C@](C)(Cc1ccccc1)NC(=O)[C@H](CCCCN)NC(=O)[C@H](CO)NC(=O)[C@@H](NC(=O)[C@H](CC(=O)O)NC(=O)[C@H](CO)NC(=O)[C@@H](NC(=O)[C@H](Cc1ccccc1)NC(=O)[C@@H](NC(=O)CNC(=O)[C@H](CCC(N)=O)NC(=O)C(C)(C)NC(=O)[C@@H](N)Cc1c[nH]cn1)[C@@H](C)O)[C@@H](C)O)C(C)C)[C@@H](C)O)C(C)C)C(=O)N[C@@H](CC(C)C)C(=O)N[C@@H](CCC(=O)O)C(=O)NC(C)(C)C(=O)NCC(=O)O` [Peptide 188, H-Aib-Q-G-T-F-T-S-D-V-S-K-αMePhe-L-D-T-K-R-A-R-D-F-V-Q-W-L-L-E-Aib-G-acid]: in the experiment with GLP-1R knockout mice (10 nmol/kg), the “GLP-1R KO % glucose change −60 min” value came out at 64%.
On to “porcine pancreatic pepsin (from UniProt P00791) (enzyme)”, for which the % intact peptide over time (min), 30 (% intact peptide at 30 min) in [2] came out at 14.

B1: Peptide 289 (peptide)
peptide: H[Aib]HGS[αMeF]TSDVSK[αMeF]LDSRAAKD[αMeF]VQWIANT-NH2
modifications: not fully specified (residue 20); also: X13: αMePhe or Y (table)
Take B1: in experiment [3], the “WT % glucose change 120 min” value was -16.1 % glucose change at 120 min, WT mice, 30 nmol/kg.

B2: Peptide 379 (peptide)
peptide: H[Aib]HGS[αMeF]TSDVSK[αMeF]LDSRAAQD[αMeF]VK([AEEA-AEEA-γGlu-C18 diacid])SIANT-NH2
modifications: not fully specified
Take B2: the “hGLP-1R EC50 (pM)” value with human GLP-1 receptor [4] was 71.8 pM. Moreover, in the experiment with human glucagon receptor, the “hGluc-R EC50 (pM)” value turned out to be 85.7 pM.

B3: Peptide 126 (peptide)
peptide: H[Aib]QGS[αMeF]TSDVSKILDSK([(PEG)2-(PEG)2-γGlu-γGlu-Myristoyl])AAQD[αMeF]VQ[Aib]IINT-NH2
With B3, in experiment [3], the “WT % glucose change 120 min” value is -46.2 % glucose change at 120 min, WT mice, 30 nmol/kg.

B4: Peptide 399 (peptide)
peptide: HSQGS[αMeF]TSDVSKK([(PEG)2-(PEG)2-γGlu-γGlu-Palmitoyl])LDS[β‑dimethylArg]AAQD[αMeF]VE[Aib]LANT-NH2
Consider B4, for which, in [3], the “WT % glucose change 120 min” value was -45 % glucose change at 120 min, WT mice, 30 nmol/kg.

B5: Peptide 357 (peptide)
peptide: HXHGSXTSDVSKXLDSQAAQDFVXWIANT
modifications: Aib at 2; αMePhe at 6, 13; Lys 24 acylated K(γE-γE-(PEG)2-γE-γE-C20diacid)24; C-terminal amide
For the molecule B5, the “hGLP-1R EC50 (pM)” value in the experiment with human GLP-1 receptor [4] amounted to 917 pM. The “hGluc-R EC50 (pM)” value with human glucagon receptor came to 550 pM.

B6: Peptide 382 (peptide)
peptide: H[Aib]HGS[αMeF]TSDVSK[αMeF]LDSR[Aib]AQDFVK([AEEA-AEEA-γGlu-γGlu-C18 diacid])SIANTGG-NH2
modifications: N-terminus assumed
SMILES: CC[C@H](C)[C@H](NC(=O)[C@H](CO)NC(=O)[C@H](CCCCNC(=O)COCCOCCNC(=O)COCCOCCNC(=O)CC[C@H](NC(=O)CC[C@H](NC(=O)CCCCCCCCCCCCCCCCC(=O)O)C(=O)O)C(=O)O)NC(=O)[C@@H](NC(=O)[C@H](Cc1ccccc1)NC(=O)[C@H](CC(=O)O)NC(=O)[C@H](CCC(N)=O)NC(=O)[C@H](C)NC(=O)C(C)(C)NC(=O)[C@H](CCCNC(=N)N)NC(=O)[C@H](CO)NC(=O)[C@H](CC(=O)O)NC(=O)[C@H](CC(C)C)NC(=O)[C@](C)(Cc1ccccc1)NC(=O)[C@H](CCCCN)NC(=O)[C@H](CO)NC(=O)[C@@H](NC(=O)[C@H](CC(=O)O)NC(=O)[C@H](CO)NC(=O)[C@@H](NC(=O)[C@](C)(Cc1ccccc1)NC(=O)[C@H](CO)NC(=O)CNC(=O)[C@H](Cc1c[nH]cn1)NC(=O)C(C)(C)NC(=O)[C@@H](N)Cc1c[nH]cn1)[C@@H](C)O)C(C)C)C(C)C)C(=O)N[C@@H](C)C(=O)N[C@@H](CC(N)=O)C(=O)N[C@H](C(=O)NCC(=O)NCC(N)=O)[C@@H](C)O
With B6, in the experiment with human GLP-1 receptor [4], the “hGLP-1R EC50 (pM)” value turned out to be 56 pM. Moreover, the “hGluc-R EC50 (pM)” value with human glucagon receptor came to 329 pM.

B7: Peptide 384 (peptide)
peptide: H[Aib]HGS[αMeF]TSDVSK[αMeF]LDSQAAQD[αMeF]VK([AEEA-AEEA-γGlu-γGlu-C20 diacid])[Aib]IANT-NH2
As to B7, the “hGLP-1R EC50 (pM)” value with human GLP-1 receptor [4] came out at 797 pM. In addition, in the experiment with human glucagon receptor, the “hGluc-R EC50 (pM)” value turned out to be 1240 pM.

B8: Peptide 393 of Table 9 (peptide)
peptide: H[Aib]HGS[αMeF]TSDK([AEEA-AEEA-γGlu-C18 diacid])SK[αMeF]LDSRAAQD[αMeF]VQ[Aib]IANT
modifications: not fully specified (C-terminus)
With B8, the “hGLP-1R EC50 (pM)” value with human GLP-1 receptor [5] was found to be 0.458 pM.

B9: Peptide 63 (peptide)
peptide: HSQGS[αMeF]TSDVSK[Dip]LDSK([PEG2′-PEG2′-γGlu-γGlu-Myristoyl])AAQD[αMeF]VE[Aib]IINT-NH2
As for B9, in experiment [3], the “WT % glucose change 120 min” value was -26.4 % glucose change at 120 min, WT mice, 10 nmol/kg.
